A short description of the data set: Circular dichroism: degree of helicity (free, SUVs, micelles, TFE). The following applies: for He (%) free: percent helicity of free, unbound peptide; for He (%) SUVs: percent helicity of peptide-SUV complexes; for He (%) TFE: percent helicity of peptide-TFE solution; for He (%) mics: percent helicity of peptide-micelle complexes. As for the experimental part:
Far UV circular dichroism spectra were recorded between 190 and 260 nm (in 0.5 nm or 0.2 nm increments) with a AVIV62DS spectrometer (AVIV Associates, Lakewood, N.J., USA) equipped with a thermoelectric cell holder and sample changer. The instrument was calibrated with (+)-10-camphoric acid. Between one and three scans were collected for each sample, using 10 cm, 5 cm, 1 cm and 0.1 cm path length quartz Suprasil cells, respectively, for peptide concentrations of 10^−7 M to 10^−4 M. The bandwidth was fixed at 1.5 nm and the scan speed to 1 s per wavelength step. The reported data are the mean of at least 2 or 3 independent measurements.
After background substraction, spectra were converted to molar ellipticity (θ) per residue in deg. […] dmol^−1. The peptide concentration was determined by amino acid analysis and also by absorption spectrometry on a Perkin Elmer Lambda 17 UV/Visible spectrophotometer when the peptide contained a chromophore (tryptophane, dansyl, naphtylalanine).
CD spectra were obtained with free, unbound peptide (5 μM in 5 mM phosphate buffer, pH 7.4); with peptide-SUV complexes (20:1 EPC:Chol., Ri=30 and Ri=50); with peptide-micelle complexes (1-myristoyl-2-hydroxy-sn-glycero-3-phosphatidyl choline, Ri=100); and with free, unbound peptide in the presence of 2,2,2-trifluoroethanol (TFE) (5 μM peptide, 90% vol TFE).
The SUVs were obtained by dispersing the lipids (10 mM, 20:1 EPC:Chol., Avanti Polar Lipids, Ala.) in phosphate buffer (5 mM, pH 7.4) with bubbling N2 for 5 min., followed by sonication (1.5 hr.) in a bath sonicator. The homogeneity of the preparation was checked by FPLC.
The micelles were obtained by dispersing the lipid (6 mM 1-myristoyl-2-hydroxy-sn-glycero-3-phosphatidyl choline, Avanti Polar Lipids, AL) in phosphate buffer (5 mM, pH 7.4) with bubbling N2 for 5 min., followed by vortexing.
To obtain the peptide-SUV complexes, SUVs were added to the peptide (5 μM in 5 mM phosphate buffer, pH 7.4) at a phospholipid-peptide molar ratio (Ri) of 30 or 50.
To obtain the peptide-micelle complexes, micelles were added to the peptide (5 μM in 5 mM phosphate buffer, pH 7.4) at a Ri of 100.
All spectra were recorded at 37° C. The stability of peptide 4 (SEQ ID NO:4) as a function of temperature (both free in buffer and in micelles) was determined by recording spectra at a series of different temperatures.
The degree of helicity of peptide 4 (SEQ ID NO:4) as a function of concentration was also determined.
The degree of helicity of the peptides in the various conditions was determined from the mean residue ellipticity at 222 nm (Chen et al., 1974, Biochemistry 13:3350-3359) or by comparing the CD spectra obtained to reference spectra available on databases (16 helical reference spectra from Provencher & Glockner, 1981, Biochemistry 20:33-37; denatured protein reference spectra from Venyaminov et al., 1993, Anal. Biochem. 214:17-24) using the CONTIN curve-fitting algorithm version 2DP, CD-1 pack (Aug. 1982) (Provencher, 1982, Comput. Phys. Commun. 27:213-227, 229-242). Acceptable fit was determined using the statistical analysis methodology provided by the CONTIN algorithm.

Where no end group is shown, it is not given here. [ ]: non-standard residue; d: D form. Aib = CC(C)(N)C(=O)O

Take PVLDLFRELLNEGLEALKQKLK [peptide 8]: the “% helicity in the presence of TFE” value came out at 93%, the “helical structure in the presence of lipids” value is reported as 61-93%, the “He (%) free” value is 20% and the “He (%) SUVs” value is recorded as 61%. The “He (%) TFE” value is listed as 93% and the “He (%) mics” value stood at 90%. For the same substance, where the note is “peptide concentration 5.0 μM, free in buffer”, the “% Helicity Free” value was found to be 20%.

Turning to “66 (PVLDLFRNLLEELLEALQKKLK) [compound 66]”, the “He (%) free” value was determined as 64%, the “He (%) SUVs” value is reported as 66%, the “He (%) TFE” value is given as 70% and the “He (%) mics” value is on record as 82%.

On to 60 (PVLDLFRELLNELLEALKQ) [compound 60], for which the “He (%) free” value was determined as 39%, the “He (%) SUVs” value is 66%, the “He (%) TFE” value is 84% and the “He (%) mics” value was determined as 83%.

Take 55 (PLFRELLNELLEALKQKLK) [compound 55]: the “He (%) free” value came out at 38%, the “He (%) SUVs” value is 78%, the “He (%) TFE” value was 75% and the “He (%) mics” value turned out to be 72%.

Regarding “DWLKAFYDKVAEKLKEAF [peptide 244, reference compound]”, the “He (%) free” value worked out at 9%, the “He (%) SUVs” value stood at 13%, the “He (%) TFE” value was determined as 48% and the “He (%) mics” value came out at 40%.

For “51 (PVLDLFWELLNE[Aib]LEALKQKLK) [compound 51]”, the “He (%) free” value was found to be 63%, the “He (%) SUVs” value came out at 81%, the “He (%) TFE” value was found to be 73% and the “He (%) mics” value amounted to 82%.

Regarding “148 (PVLELFENLLERLGDALQKKLK) [compound 148]”, the “He (%) free” value worked out at 10%, the “He (%) SUVs” value came to 23%, the “He (%) TFE” value is listed as 80% and the “He (%) mics” value amounted to 76%.

Take “194 (Ac-PVLELFRELLEELKQKLK-NH2) [compound 194]”: the “He (%) free” value came to 38%, the “He (%) TFE” value is reported as 93% and the “He (%) mics” value was 93%.

As to 210 (PVLDLFRELLEELKQKLK) [compound 210], the “He (%) free” value worked out at 20%, the “He (%) SUVs” value was found to be 37%, the “He (%) TFE” value is listed as 53% and the “He (%) mics” value is listed as 63%.

Take “67 (VLDLFRELLNELLEALKQKLK) [compound 67]”: the “He (%) free” value is reported as 81%, the “He (%) SUVs” value is reported as 84%, the “He (%) TFE” value is 94% and the “He (%) mics” value came to 90%.

Regarding “36 (PLLELLKELLQELLEALKQKLK) [compound 36]”, the “He (%) free” value was 95%, the “He (%) TFE” value is on record as 95% and the “He (%) mics” value is reported as 100%.

As to “85 (PLDLFRELLNELLEALKQKLK) [compound 85]”, the “He (%) free” value was determined as 58%, the “He (%) SUVs” value amounted to 64%, the “He (%) TFE” value came to 69% and the “He (%) mics” value came out at 61%.

Take “EWLKAFYEKVLEKLKELF* [peptide 238, reference compound]”: the “He (%) free” value came to 49%, the “He (%) SUVs” value amounted to 60%, the “He (%) TFE” value was 58% and the “He (%) mics” value amounted to 72%.

Regarding “49 (PVLDLFRNLLEKLLEALEQKLK) [compound 49]”, the “He (%) free” value turned out to be 57%, the “He (%) SUVs” value was found to be 52%, the “He (%) TFE” value stood at 57% and the “He (%) mics” value is recorded as 65%.

In the case of “45 (PVLDEFREKLNE[Aib]LEALKQKLK) [compound 45]”, the “He (%) TFE” value came to 86% and the “He (%) mics” value was found to be 84%.

Regarding 220 (PVLDLFRELLEELQKKLK) [compound 220], the “He (%) free” value is 27%, the “He (%) SUVs” value is 54%, the “He (%) TFE” value stood at 64% and the “He (%) mics” value was found to be 64%.

Consider “164 (PVLELFENLLERLLDAWQKKLK) [compound 164]”, for which the “He (%) free” value is 37%, the “He (%) SUVs” value worked out at 51%, the “He (%) TFE” value is on record as 61% and the “He (%) mics” value is on record as 66%.

Regarding “37 (PVLDLFREWLNELLEALKQKLK) [compound 37]”, the “He (%) free” value amounted to 65%, the “He (%) SUVs” value worked out at 76%, the “He (%) TFE” value turned out to be 73% and the “He (%) mics” value was 75%.

Consider “DWFKAFYDKVAEKFKEAF [peptide 243, reference compound]”, for which the “He (%) free” value was determined as 10%, the “He (%) SUVs” value is reported as 50% and the “He (%) mics” value stood at 64%.

Regarding “42 (PVLDEFREKLNE[Aib]WEALKQKLK) [compound 42]”, the “He (%) free” value came to 15%, the “He (%) SUVs” value is reported as 27%, the “He (%) TFE” value was 76% and the “He (%) mics” value is 74%.

As to “35 (PVLDWFRELLNELLEALKQKLK) [compound 35]”, the “He (%) SUVs” value was 61% and the “He (%) mics” value worked out at 59%.

As for “PVLDLFRELLNEXLEALKQKLK (PVLDLFRELLNE[Aib]LEALKQKLK) [peptide 6]”, the “He (%) free” value is listed as 57%, the “He (%) SUVs” value worked out at 70%, the “He (%) TFE” value is 99% and the “He (%) mics” value worked out at 93%.

On to “46 (PVLDLFREKLNE[Aib]LEALKQKLK) [compound 46]”, for which the “He (%) free” value turned out to be 30%, the “He (%) SUVs” value was 58%, the “He (%) TFE” value is on record as 85% and the “He (%) mics” value is listed as 86%.

For “146 (PVLELFENLLERLLDALQKKLK) [compound 146]”, the “He (%) free” value amounted to 97%, the “He (%) SUVs” value is 100%, the “He (%) TFE” value came out at 95% and the “He (%) mics” value is recorded as 100%.

Take “38 (PVLDLFRELLNE[Aib]LEAWKQKLK) [compound 38]”: the “He (%) free” value is 25%, the “He (%) SUVs” value is 21%, the “He (%) TFE” value stood at 49% and the “He (%) mics” value stood at 49%.

Take “50 (PVLDLFRELLWE[Aib]LEALKQKLK) [compound 50]”: the “He (%) free” value amounted to 68%, the “He (%) SUVs” value came to 89%, the “He (%) TFE” value is listed as 76% and the “He (%) mics” value worked out at 84%.

As to “LDDLLQKWAEAFNQLLKK [peptide 237, reference compound]”, the “He (%) free” value is 30%, the “He (%) SUVs” value worked out at 45% and the “He (%) mics” value is 66%.

Regarding “31 (PVLDLFLELLNE[Aib]LEALKQKLK) [compound 31]”, the “He (%) free” value came out at 49%, the “He (%) TFE” value is recorded as 90% and the “He (%) mics” value turned out to be 98%.

For “DWLKAFYDKVFEKFKEFF [peptide 245, reference compound]”, the “He (%) free” value came to 38%, the “He (%) SUVs” value was determined as 70% and the “He (%) mics” value turned out to be 77%.

In the case of “162 (PVLELFENWLERLLDALQKKLK) [compound 162]”, the “He (%) free” value is 68%, the “He (%) SUVs” value was 81% and the “He (%) mics” value worked out at 83%.

For the substance “40 (PVLDLFNELLRELLEALQKKLK) [compound 40]”, the “He (%) free” value was 66%, the “He (%) SUVs” value is 79%, the “He (%) TFE” value stood at 77% and the “He (%) mics” value came to 84%.

For “PVLDFFRELLNEXLEALKQKLK (PVLDFFRELLNE[Aib]LEALKQKLK) [peptide 25]”, the “He (%) free” value was determined as 46%, the “He (%) TFE” value is on record as 93% and the “He (%) mics” value is on record as 82%.

“62 (PVLDEWREKLNE[Aib]LEALKQKLK) [compound 62]”: the “He (%) free” value came to 15%, the “He (%) SUVs” value is given as 43% and the “He (%) mics” value is 85%.

With “EWLKAFYEKVLEKLKELF [peptide 248, reference compound]”, the “He (%) free” value came out at 18%, the “He (%) SUVs” value amounted to 13% and the “He (%) mics” value turned out to be 45%.

As for “149 (PVLELFENLWERLLDALQKKLK) [compound 149]”, the “He (%) free” value was determined as 28%, the “He (%) TFE” value stood at 47% and the “He (%) mics” value turned out to be 54%.

Source of the values: patent US6602854B1, “Branched multimeric Apo A-I agonist compounds” (priority 1997, dated 2003).
